pKd: −log10 of the molar value.
Tests used:
Experiment in all cases: ITC
[1] = molecular target: FXR1 215-360 (UniProt P51114); details: reference: unphosphorylated UBAP2L 243-270 peptide
[2] = molecular target: FXR1 215-360 (human)
[3] = molecular target: GST-NSP3 1-181 (SARS-CoV-2)
[4] = molecular target: His-NSP3 1-181 WT (SARS-CoV-2)

Substance | pKd [2] | stoichiometry N [2] | further results
UBAP2L 243-270 (from UniProt Q14157) pS262 peptide | – | – | binding against the reference ([1]; sites S262): lost
UBAP2L 243-270 peptide, phosphorylated on Thr246 (from UniProt F8W726 243-270) | 5.44 | 0.9 | –
UBAP2L 243-270 (from UniProt Q14157) pS254 peptide | – | – | binding against the reference ([1]; sites S254): lost
UBAP2L 243-270 (from UniProt Q14157) pT246 peptide | – | – | KD ([1]; sites T246): stronger; reference 8.5
FXR1 215-360 (domain or fragment) | – | – | pKd [3]: 5.65; stoichiometry N [3]: 0.9; pKd [4]: 5.54
UBAP2L 243-270 peptide (from UniProt F8W726 243-270) | 5.07 | 0.96 | –
UBAP2L 243-270 peptide, phosphorylated on Ser254 (from UniProt F8W726 243-270) | 4.59 | 0.92 | –
